Substitutions are numbered along the chain they refer to. Numbers in names are those of the source. Where “and” joins values, the source holds several entries; their conditions need not be identical. Equal entries are not always repeated.
B1: Nrxn1 LNS2^SS2− (I401Q), AviTag-His, biotinylated (BLI) (domain or fragment)
chain: not shown
modifications: biotin on the AviTag (BirA)
notes: numbers count on: UniProt Q9CS84-1 (isoform 1a); Igκ signal peptide at the N-terminus; source: 293F cells, transfected, secreted, purified (Ni-NTA, BirA biotinylation, Superdex Increase 200); not shown: AviTag, C-terminal, kept; His6, C-terminal, kept
B2: Nrxn3 LNS2^SS2A+, AviTag-His, biotinylated (BLI) (domain or fragment)
chain: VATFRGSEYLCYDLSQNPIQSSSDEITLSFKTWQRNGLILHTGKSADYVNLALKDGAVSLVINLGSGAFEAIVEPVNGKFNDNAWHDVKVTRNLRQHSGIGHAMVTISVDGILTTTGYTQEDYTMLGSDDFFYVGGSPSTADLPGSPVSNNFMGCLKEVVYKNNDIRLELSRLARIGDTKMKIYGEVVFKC
modifications: biotin on the AviTag (BirA)
B3: Nrxn1 LNS2^SS2−, AviTag-His, biotinylated (BLI) (domain or fragment)
chain: not shown
modifications: biotin on the AviTag (BirA)
notes: as for B1
B4: Nxph3-2XFLAG-His (rat neurexophilin-3, 50-252) (ligand, UniProt Q9Z2N5 50-252, looked up)
chain: RGHISPKSRPLANSTLLGLLAPPGEVWGILGQPPNRPKQSPLPSTKVKKIFGWGDFYSNIKTVALNLLVTGKIVDHGNGTFSVHFRHNATGQGNISISLVPPSKAVEFHQEQQIFIEAKASKIFNCRMEWEKVERGRRTSLCTHDPAKICSRDHAQSSATWSCSQPFKIVCVYIAFYSTDYRLVQKVCPDYNYHSDTPYYPSG
modifications: glycans (sites not given)
notes: Neurexophilin-3, rat, residues 50-252; Expressed with an Igκ signal peptide at the N-terminus; HRV 3C site before the tags, not cut; source: 293F cells, BacMam expression system, secreted; purification not described; not shown: 2xFLAG, C-terminal, kept; His6, C-terminal, kept
B5: Nxph1-2XFLAG-His (mature rat neurexophilin-1, 118-271, glycosylated) (ligand, UniProt Q63366 118-271, looked up)
chain: MFGWGDFHSNIKTVKLNLLITGKIVDHGNGTFSVYFRHNSTGQGNVSVSLVPPTKIVEFDLAQQTVIDAKDSKSFNCRIEYEKVDKATKNTLCNYDPSKTCYQEQTQSHVSWLCSKPFKVICIYISFYSTDYKLVQKVCPDYNYHSDTPYFPSG
modifications: N-linked glycans at N146, N156 and N162
notes: Neurexophilin-1, rat, mature form, residues 118-271; Expressed with an Igκ signal peptide at the N-terminus; HRV 3C site before the tags, not cut for the biochemical studies; source: 293F cells, BacMam expression system, secreted; purification of Nxph1 alone not described; not shown: 2xFLAG, C-terminal, kept; His6, C-terminal, kept
B6: Nxph1^3ND (mature rat neurexophilin-1, 118-271, N146D/N156D/N162D) (ligand, UniProt Q63366 118-271, looked up)
chain: B5 chain with N29D, N39D, N45D
notes: Neurexophilin-1, rat, mature form, residues 118-271, the three N-linked glycosylation sites mutated to aspartic acid; Expressed with an Igκ signal peptide at the N-terminus; tags removed with HRV 3C protease; also called Nxph1 (in the crystal structures); source: HEK293S GnTI- cells, BacMam, co-expressed with LNS2, complex purified (HisTrap, StrepTrap, 3C cleavage, Mono Q); not shown: 2xFLAG, …

Key:
[1] = molecular target: B4; experiment: BLI; Octet RED384; biotinylated neurexin LNS2 on streptavidin tips, Nxph in solution; 25°C, PBS pH 7.4, 50 nM TCEP, 1% BSA; global fit, double reference subtraction; settings: both partners purified
[2] = molecular target: B5; experiment: as above; settings: both partners purified
[3] = molecular target: the molecule itself; experiment: SEC-MALS; Superdex 200 10/300, 0.5 ml/min, PBS pH 7.4
[4] = molecular target: the molecule itself; experiment: SEC-MALS + other: SEC-SAXS; Nxph1 alone; SEC-MALS on Superdex 200 10/300 in PBS pH 7.4, SEC-SAXS on Superdex Increase 200 3.2/300
[5] = molecular target: B3; experiment: BLI; Octet RED384; biotinylated neurexin LNS2 on streptavidin tips, Nxph in solution; 25°C, PBS pH 7.4, 50 nM TCEP, 1% BSA; global fit, double reference subtraction; settings: both partners purified
[6] = molecular target: B1; experiment: as above; settings: both partners purified
[7] = molecular target: T1, Nrxn1 LNS2^SS2A+, AviTag-His, biotinylated (BLI) (mouse, UniProt Q9CS84-1 283-480, 283–386; 394–480, biotin on the AviTag (BirA)); experiment: as above; settings: both partners purified
T1 construct: numbers count on: UniProt Q9CS84-1 (isoform 1a); Igκ signal peptide at the N-terminus; source: 293F cells, transfected, secreted, purified (Ni-NTA, BirA biotinylation, Superdex Increase 200); not shown: AviTag, C-terminal, kept; His6, C-terminal, kept
T1 sequence (Q9CS84 other isoform, or with tags, fused parts or gaps 283–386/394–480 | 283–386/394–480): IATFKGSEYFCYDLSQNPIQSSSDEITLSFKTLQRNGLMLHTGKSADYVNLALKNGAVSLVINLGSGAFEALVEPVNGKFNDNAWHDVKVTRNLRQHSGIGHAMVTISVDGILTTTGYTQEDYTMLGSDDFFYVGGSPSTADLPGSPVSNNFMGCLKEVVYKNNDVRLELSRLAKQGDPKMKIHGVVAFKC

[8] = molecular target: T2, Nrxn1 LNS2^SS2A+ (I401Q), AviTag-His, biotinylated (BLI) (mouse, UniProt Q9CS84-1 283-480, 283–386; 394–480 | I401Q, biotin on the AviTag (BirA)); experiment: as above; settings: both partners purified
T2 construct: numbers count on: UniProt Q9CS84-1 (isoform 1a); Igκ signal peptide at the N-terminus; source: 293F cells, transfected, secreted, purified (Ni-NTA, BirA biotinylation, Superdex Increase 200); not shown: AviTag, C-terminal, kept; His6, C-terminal, kept
T2 sequence (Q9CS84 other isoform, or with tags, fused parts or gaps with the stated changes): as the sequence (Q9CS84 other isoform, or with tags, fused parts or gaps 283–386/394–480 | 283–386/394–480) above, with I112Q counted along it

[9] = molecular target: T3, Nrxn1 LNS2^SS2− (C293A), crystallographic construct (mouse, UniProt Q9CS84-1 283-480, 283–378; 394–480 | C293A); experiment: SEC-MALS; Superdex 200 10/300, 0.5 ml/min, PBS pH 7.4; settings: both partners purified
T3 construct: Neurexin-1 alpha, mouse, LNS2 domain without insert in splice site 2, residues 283-378 joined to 394-480; numbers count on: UniProt Q9CS84-1 (isoform 1a); Expressed with an Igκ signal peptide at the N-terminus; source: HEK293S GnTI- cells, BacMam, co-expressed with Nxph1^3ND, complex purified (HisTrap, StrepTrap, 3C cleavage, Mono Q); not shown: Twin-Strep, C-terminal, cleaved
T3 sequence (Q9CS84 other isoform, or with tags, fused parts or gaps with the stated changes): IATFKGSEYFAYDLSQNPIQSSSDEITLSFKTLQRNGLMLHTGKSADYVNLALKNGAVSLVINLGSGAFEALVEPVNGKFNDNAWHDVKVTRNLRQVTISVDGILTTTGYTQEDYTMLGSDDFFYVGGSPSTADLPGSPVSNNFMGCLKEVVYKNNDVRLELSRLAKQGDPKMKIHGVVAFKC

[10] = molecular target: T4, Nrxn1 LNS2^SS2A+, crystallographic construct (mouse, UniProt Q9CS84-1 283-480, 283–386; 394–480); experiment: as above; settings: both partners purified
T4 construct: Neurexin-1 alpha, mouse, LNS2 domain with the eight-residue SS2A insert (379-386), residues 283-386 joined to 394-480; numbers count on: UniProt Q9CS84-1 (isoform 1a); Expressed with an Igκ signal peptide at the N-terminus; not shown: Twin-Strep, C-terminal, cleaved
T4 sequence (Q9CS84 other isoform, or with tags, fused parts or gaps 283–386/394–480 | 283–386/394–480): as the sequence (Q9CS84 other isoform, or with tags, fused parts or gaps 283–386/394–480 | 283–386/394–480) above

B1
Kd [1]: 3340 nM
koff [1]: 0.00064 s⁻¹
kon [1]: 194 M⁻¹ s⁻¹

B2
Kd [2]: 31.4 nM
koff [2]: 6.4e-05 s⁻¹
kon [2]: 2060 M⁻¹ s⁻¹

B3
Kd [1]: 260 nM
koff [1]: 0.0001 s⁻¹
kon [1]: 209 M⁻¹ s⁻¹

B4
binding result [3]: binds

B5
stoichiometry N [4]: 2 and 4
Kd [5]: 299 nM
koff [5]: 0.00012 s⁻¹
kon [5]: 399 M⁻¹ s⁻¹
Kd [6]: 16400 nM
koff [6]: 0.0034 s⁻¹
kon [6]: 220 M⁻¹ s⁻¹
Kd [7]: 49 nM
koff [7]: 9.7e-05 s⁻¹
kon [7]: 2040 M⁻¹ s⁻¹
Kd [8]: 472 nM
koff [8]: 0.0002 s⁻¹
kon [8]: 419 M⁻¹ s⁻¹

B6
stoichiometry N [9]: 1
stoichiometry N [10]: 1

From publication PMC6856630, “Structures of neurexophilin–neurexin complexes reveal a regulatory mechanism of alternative splicing” (The EMBO Journal, 2019)
